Target: Siglec-10 receptor overexpressed on CHO cells (UniProt Q96LC7)
Chain of UniProt Q96LC7 (Q96LC7 17-697): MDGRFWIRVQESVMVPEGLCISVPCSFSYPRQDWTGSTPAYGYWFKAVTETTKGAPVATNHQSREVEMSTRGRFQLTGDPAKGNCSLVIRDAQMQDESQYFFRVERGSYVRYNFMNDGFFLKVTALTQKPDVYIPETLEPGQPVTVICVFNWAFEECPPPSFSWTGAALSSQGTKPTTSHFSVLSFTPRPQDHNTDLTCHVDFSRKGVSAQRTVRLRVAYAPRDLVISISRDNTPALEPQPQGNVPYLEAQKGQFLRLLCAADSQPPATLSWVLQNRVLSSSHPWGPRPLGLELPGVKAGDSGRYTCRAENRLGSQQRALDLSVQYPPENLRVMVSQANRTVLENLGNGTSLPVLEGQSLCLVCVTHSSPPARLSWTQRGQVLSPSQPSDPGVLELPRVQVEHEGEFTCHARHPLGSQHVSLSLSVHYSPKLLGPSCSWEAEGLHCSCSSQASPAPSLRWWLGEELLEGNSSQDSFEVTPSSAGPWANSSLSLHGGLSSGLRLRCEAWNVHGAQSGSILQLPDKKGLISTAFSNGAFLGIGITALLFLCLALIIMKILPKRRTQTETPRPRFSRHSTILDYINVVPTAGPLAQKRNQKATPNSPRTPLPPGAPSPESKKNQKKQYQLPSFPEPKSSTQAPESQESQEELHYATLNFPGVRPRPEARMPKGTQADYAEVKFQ

## flagella (flagellin FlaA) of C. jejuni 11168H WT (from UniProt P56963 1-572) (natural protein)
  IL-10 secretion (ELISA) of Siglec-10 transduced RAW264.7 cells against GFP control-transduced cells, infection with live 11168H WT, MOI 100, 24 hours: 2 fold

— paper PMC4195440
